# Results reported in paper PMC9628034.
# Target: apolipoprotein E, apoE4 isoform, of human cerebrospinal fluid (human (endogenous in CSF)) (UniProt P02649)
# Test: native gel or EMSA; blue-native PAGE 4-16% of unheated AD CSF; western blot with AB178479; dimer/monomer quotient from band intensities
substance,measurement,value
"apolipoprotein E, apoE4 isoform, of human cerebrospinal fluid (from UniProt P02649 19-317) (natural protein)",ratio D/M (apoE dimer/monomer quotient),0.24
